Results: patent US7422862B2, “Methods for identifying modulators of apoptosis” (The Burnham Institute, priority 2001, dated 2008)
No end group written: not given here.

Tests used:
Bax [1] = molecular target: T1, Bax (Homo sapiens, UniProt Q07812); assay: Co-immunoprecipitation of GFP-Humanin fusion polypeptides with Bax in transfected cells; format: binding; parameters: expressed in transfected cells; host or cells: HEK293T; key to Bax binding: +: ability to bind Bax was determined by co-immunoprecipitation assay; −: lacked Bax-binding activity; conditions: for Bax binding: GFP-fusion polypeptides, co-immunoprecipitation
T1 sequence (Q07812 whole entry, species assumed, the tested form may be a part): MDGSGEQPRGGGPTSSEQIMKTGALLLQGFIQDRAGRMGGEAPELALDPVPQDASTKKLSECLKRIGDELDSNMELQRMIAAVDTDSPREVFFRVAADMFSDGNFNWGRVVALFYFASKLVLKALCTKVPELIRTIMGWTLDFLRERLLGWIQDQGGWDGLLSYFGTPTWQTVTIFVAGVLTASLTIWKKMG
Text: Humanin (HN) cDNA was sub-cloned into a Green Fluorescence Protein (GFP) expression vector GFP-Cl at the Xhol/Hind III sites, producing a GFP-HN fusion polypeptide. GFP and GFP-HN were transfected into 293T cells with pcDNA3-HA-Bax. Cell lysates from these cells were immunoprecipitated with anti-GFP antibody and subsequently blotted with anti-HA antibody. The lysates were also blotted with ani-GFP antibody to confirm polypeptide expression. […] The data shown were obtained using the cytosolic form of Humanin; however, both cytosolic and mitochondrial forms of Humanin were tested and the results were the same.
Co-immunoprecipitation assays were performed using Humanin polypeptides expressed as fusion polypeptides with the Green Fluorescent Protein (GFP) in human cells. Wild-type Humanin fused to GFP is referred to as GFP-HN and a mutant form of Humanin, where the cysteine at position 8 is replaced with proline, fused to GFP is referred to as GFP-C8P. […] Immunoblot analysis of lysates of the transfected cells confirmed production of all proteins. In addition, GFP-HN also coimmunoprecipitated endogenous Bax from cell lines, which contain relatively high levels of the Bax protein.
Immunoblotting and immunoprecipitations were performed as follows. Immunoblotting was performed as described previously (Fields and Song, Nature 340:245-246 (1989)). For co-immunoprecipitations, cells were cultured in 50 uM […] Valine Alanine Asparate fluoromethyl-ketone (zVAD-fmk) to prevent apoptosis. Cells were suspended in lysis buffer (50 mM Tris-HCl, pH7.4; 150 mM NaCl; 20 mM EDTA; 50 mM NaF; 0.5% NP-40; 0.1 mM Na3VO4; 20 ug/ml Leupeptin; 20 ug/ml Aprotinin; 1 mM DTT; and 1 mM PMSF). Lysates (200 ul diluted in 1 ml final volume of lysis buffer) were cleared by incubation with 15 ul of protein G-Sepharose 4B (Zymed) and then incubated with 15 ul of polyclonal antibody and 15 ul of protein G at 4° C. overnight. Beads were then washed 4 times with 1.5 mls lysis buffer before boiling in Laemmli sample buffer and performing SDS-PAGE/immunoblotting.
(§1) In order to explore whether a correlation exists between Humanin binding to Bax and Humanin-mediated suppression of apoptosis, Bax was co-expressed with various GFP-fusion polypeptides encoding wild-type, full-length Humanin or various truncation and site-specific mutants of Humanin (Table 1). Expression of all GFP-fusion polypeptides was confirmed by immunoblotting, and ability to bind Bax was determined by co-immunoprecipitation assay. Each Humanin mutant was scored for ability to suppress apoptosis induced by Bax over-expression by >50% using a 3:1 ratio of HN:Bax plasmid DNA. […] Based on these studies, an active region of the 24 amino-acid Humanin peptide, mapped to residues 7-17.

Bax [2] = molecular target: T1, Bax; assay: Suppression of apoptosis induced by Bax over-expression (Humanin mutants); format: cell-based; parameters: expressed in transfected cells; host or cells: HEK293T; conditions: GFP-fusion polypeptides, 3:1 ratio of HN:Bax plasmid DNA
Description: (§2) Apoptosis assays were performed as follows. Both floating and adherent cells (after trypsinization) were collected 48 hr after transfection, fixed, and stained using 4′,6-diamidine-2′-phenylindole dihydrochloride (DAPI) for assessing apoptosis based on nuclear fragmentation and chromatin condensation (Fields and Song, supra (1989)).
as §1
Cell culture and transfections were performed as follows. CSM14.1, HCT116, Cos-7, and SF268 cells were cultured in DMEM high glucose media (Irvine Scientific, Santa Ana, Calif.) containing 10% fetal bovine serum (FBS). PC-3 cells were cultured with RPMI 1640 media containing 10% FBS. Transfection of cells was performed using SuperFect (Qiagen, Chatsworth, Calif.) or LipofectaminePLUS reagent ([…]).

Bax [3] = molecular target: T1, Bax; assay: Bax-induced apoptosis in transfected neuronal cells (DAPI staining); format: cell-based; parameters: expressed in transfected cells; conditions: CSM14.1 cells, 48 h, DAPI
Description: (A) HEK293T cells were transfected with pcDNA3-HA-Bax together with plasmids encoding GFP, GFP-HN(N), or GFP-HN(M). Cell lysates were immunoprecipitated with polyclonal anti-GFP antibody. Immunoprecipitates (IP) or cell lysates were analyzed by immunoblotting using anti-HA or anti-GFP antibodies, respectively. (B) CSM14.1 neuronal cells were co-transfected with pcDNA3-HA-Bax together with plasmids encoding GFP, GFP-HN(N), or GFP-HN(M). Percent apoptosis was determined 48 h later by DAPI staining (mean±SD; n=3).
Rat neuronal cell line CSM14.1 cells were transfected with various plasmids using the Lipofectamine reagent (Invitrogen). For transfection, 10×10^5 cells were plated per well using 6 well plates. Each well received 1 μg DNA plus […] of Lipofectamine. After 24 hours of transfection, the percentage of cell death was determined using 4′-6-diamidino-2-phenylindole (DAPI) staining. […] The data shown were obtained using the cytosolic form of Humanin; however, both cytosolic and mitochondrial forms of Humanin were tested and the results were the same.
as §2
Since Humanin co-immunoprecipitates with Bax but not Bak, the effects of Humanin over-expression on apoptosis induced by these members of the Bcl-2 family was compared. […] Similar results were obtained regardless of whether Humanin was fused to the N- or C-terminus of GFP, with both of these GFP fusion polypeptides localizing to the cytosol of cells.

Row | Substance | Bax binding (Bax [1]) | Bax suppression (Bax [2]) | co-immunoprecipitation with tagged Bax (Bax [1]; 293T/HEK293T cells, anti-GFP immunoprecipitation) | suppression of Bax-induced apoptosis, nuclear vs mitochondria-encoded form (Bax [3])
1 | 1-12: GFP-fusion of Humanin truncation, residues 1-12 (MAPRGFSCLLLL; also: fused to GFP; UniProt Q8IVG9 1-12, looked up, fragment) | − | − (failed to protect against Bax-induced apoptosis) |  | 
2 | 1-15: GFP-fusion of Humanin truncation, residues 1-15 (MAPRGFSCLLLLTSE; also: fused to GFP; UniProt Q8IVG9 1-15, looked up, fragment) | − | − (failed to protect against Bax-induced apoptosis) |  | 
3 | 1-17: GFP-fusion of Humanin truncation, residues 1-17 (MAPRGFSCLLLLTSEID; also: fused to GFP; UniProt Q8IVG9 1-17, looked up, fragment) | + | + (ability to suppress apoptosis induced by Bax over-expression by >50%) |  | 
4 | 3-17: GFP-fusion of Humanin truncation, residues 3-17 (PRGFSCLLLLTSEID; also: fused to GFP; UniProt Q8IVG9 3-17, looked up, fragment) | + | + (ability to suppress apoptosis induced by Bax over-expression by >50%) |  | 
5 | 3-18: GFP-fusion of Humanin truncation, residues 3-18 (PRGFSCLLLLTSEIDL; also: fused to GFP; UniProt Q8IVG9 3-18, looked up, fragment) | + | + (ability to suppress apoptosis induced by Bax over-expression by >50%) |  | 
6 | 3-19: GFP-fusion of Humanin truncation, residues 3-19 (PRGFSCLLLLTSEIDLP; also: fused to GFP; UniProt Q8IVG9 3-19, looked up, fragment) | + | + (ability to suppress apoptosis induced by Bax over-expression by >50%) |  | 
7 | 3-24: GFP-fusion of Humanin truncation, residues 3-24 (PRGFSCLLLLTSEIDLPVKRRA; also: fused to GFP; UniProt Q8IVG9 3-24, looked up, fragment) | + | + (ability to suppress apoptosis induced by Bax over-expression by >50%) |  | 
8 | 4-24: GFP-fusion of Humanin truncation, residues 4-24 (RGFSCLLLLTSEIDLPVKRRA; also: fused to GFP; UniProt Q8IVG9 4-24, looked up, fragment) | + | + (ability to suppress apoptosis induced by Bax over-expression by >50%) |  | 
9 | 7-24: GFP-fusion of Humanin truncation, residues 7-24 (SCLLLLTSEIDLPVKRRA; also: fused to GFP; UniProt Q8IVG9 7-24, looked up, fragment) | + | + (ability to suppress apoptosis induced by Bax over-expression by >50%) |  | 
10 | 10-24: GFP-fusion of Humanin truncation, residues 10-24 (LLLTSEIDLPVKRRA; also: fused to GFP; UniProt Q8IVG9 10-24, looked up, fragment) | − | − (failed to protect against Bax-induced apoptosis) |  | 
11 | 13-24: GFP-fusion of Humanin truncation, residues 13-24 (TSEIDLPVKRRA; also: fused to GFP; UniProt Q8IVG9 13-24, looked up, fragment) | − | − (failed to protect against Bax-induced apoptosis) |  | 
12 | GFP Only: Green Fluorescent Protein control without Humanin [reference compound] | − | − (failed to protect against Bax-induced apoptosis) |  | 
13 | GFP-HN(M): mitochondria-encoded Humanin (SEQ ID NO:3, 21 amino acids, Met at position 16) as GFP fusion |  |  | comparable amounts | suppressed to comparable extents
